The subject of one data set is hTERT-HMEC. In words: percentage of EdU-negative (G0-arrested) nuclei per well, 72 h; higher = more G0 arrest. The following applies: reference: sequence is the full UniProt precursor, the tested protein was the secreted form or ectodomain.
Another data set has as its system MCF7. The data set is described as above. The following applies: reference: sequence is the full UniProt precursor, the tested protein was the secreted form or ectodomain.
[1] abbreviates: protein concentration 0.0225 µM.

± gives the standard deviation of the averaged measurements.
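Note: secreted proteins added to cultured cells, EdU pulse at the end, nuclei found by Hoechst imaging, EdU status from nuclear versus surrounding ring intensity ratio, PBS as neutral control.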

Consider “MRLSVRRVLLAAGCALVLVLAVQLGQQVLECRAVLAGLRSPRGAMRPEQEELVMVGTNHVEYRYGKAMPLIFVGGVPRSGTTLMRAMLDAHPEVRCGEETRIIPRVLAMRQAWSKSGREKLRLDEAGVTDEVLDAAMQAFILEVIAKHGEPARVLCNKDPFTLKSSVYLSRLFPNSKFLLMVRDGRASVHSMITRKVTIAGFDLSSYRDCLTKWNKAIEVMYAQCMEVGKEKCLPVYYEQLVLHPRRSLKLILDFLGIAWSDAVLHHEDLIGKPGGVSLSKIERSTDQVIKPVNLEALSKWTGHIPGDVVRDMAQIAPMLAQLGYDPYANPPNYGNPDPFVINNTQRVLKGDYKTPANLKGYFQVNQNSTSSHLGSS”, for which the “percentage of EdU-negative” value is 5.18 ± 0.23% in the data set with hTERT-HMEC (setting [1]), 36.4 ± 2.8% in the data set on hTERT-HMEC (protein concentration 0.225 µM), 26.7 ± 0.75% with MCF7 (setting [1]) and 30.1 ± 1.8% in the data set with MCF7 (protein concentration 0.225 µM).

Consider “MHQMNAKMHFRFVFALLIVSFNHDVLGKNLKYRIYEEQRVGSVIARLSEDVADVLLKLPNPSTVRFRAMQRGNSPLLVVNEDNGEISIGATIDREQLCQKNLNCSIEFDVITLPTEHLQLFHIEVEVLDINDNSPQFSRSLIPIEISESAAVGTRIPLDSAFDPDVGENSLHTYSLSANDFFNIEVRTRTDGAKYAELIVVRELDRELKSSYELQLTASDMGVPQRSGSSILKISISDSNDNSPAFEQQSYIIQLLENSPVGTLLLDLNATDPDEGANGKIVYSFSSHVSPKIMETFKIDSERGHLTLFKQVDYEITKSYEIDVQAQDLGPNSIPAHCKIIIKVVDVNDNKPEININLMSPGKEEISYIFEGDPIDTFVALVRVQDKDSGLNGEIVCKLHGHGHFKLQKTYENNYLILTNATLDREKRSEYSLTVIAEDRGTPSLSTVKHFTVQINDINDNPPHFQRSRYEFVISENNSPGAYITTVTATDPDLGENGQVTYTILESFILGSSITTYVTIDPSNGAIYALRIFDHEEVSQITFVVEARDGGSPKQLVSNTTVVLTIIDENDNVPVVIGPALRNNTAEITIPKGAESGFHVTRIRAIDRDSGVNAELSCAIVAGNEENIFIIDPRSCDIHTNVSMDSVPYTEWELSVIIQDKGNPQLHTKVLLKCMIFEYAESVTSTAMTSVSQASLDVSMIIIISLGAICAVLLVIMVLFATRCNREKKDTRSYNCRVAESTYQHHPKRPSRQIHKGDITLVPTINGTLPIRSHHRSSPSSSPTLERGQMGSRQSHNSHQSLNSLVTISSNHVPENFSLELTHATPAVEQVSQLLSMLHQGQYQPRPSFRGNKYSRSYRYALQDMDKFSLKDSGRGDSEAGDSDYDLGRDSPIDRLLGEGFSDLFLTDGRIPAAMRLCTEECRVLGHSDQCWMPPLPSPSSDYRSNMFIPGEEFPTQPQQQHPHQSLEDDAQPADSGEKKKSFSTFGKDSPNDEDTGDTSTSSLLSEMSSVFQRLLPPSLDTYSECSEVDRSNSLERRKGPLPAKTVGYPQGVAAWAASTHFQNPTTNCGPPLGTHSSVQPSSKWLPAMEEIPENYEEDDFDNVLNHLNDGKHELMDASELVAEINKLLQDVRQS [Q9HCL0]”, for which the “percentage of EdU-negative” value in the data set with hTERT-HMEC (setting [1]) is 3.86 ± 0.13%; in the data set on hTERT-HMEC (protein concentration 0.225 µM), 11.6 ± 1.6%; in the data set on MCF7 (setting [1]), 28.4 ± 2%; with MCF7 (protein concentration 0.225 µM), 32.5 ± 0.58%.

Regarding “MAVRQWVIALALAALLVVDREVPVAAGKLPFSRMPICEHMVESPTCSQMSNLVCGTDGLTYTNECQLCLARIKTKQDIQIMKDGKC”, the “percentage of EdU-negative” value in the data set with hTERT-HMEC (setting [1]) is 5.06 ± 0.67%; in the data set with hTERT-HMEC (protein concentration 0.225 µM) it was 4.68 ± 0.28%; with MCF7 (setting [1]), 26.2 ± 1.9%; with MCF7 (protein concentration 0.225 µM), 25.8 ± 0.45%.

For “MPVPASWPHLPSPFLLMTLLLGRLTGVAGEDELQVIQPEKSVSVAAGESATLRCAMTSLIPVGPIMWFRGAGAGRELIYNQKEGHFPRVTTVSELTKRNNLDFSISISNITPADAGTYYCVKFRKGSPDDVEFKSGAGTELSVRAKPSAPVVSGPAVRATPEHTVSFTCESHGFSPRDITLKWFKNGNELSDFQTNVDPAGDSVSYSIHSTARVVLTRGDVHSQVICEIAHITLQGDPLRGTANLSEAIRVPPTLEVTQQPMRAENQANVTCQVSNFYPRGLQLTWLENGNVSRTETASTLIENKDGTYNWMSWLLVNTCAHRDDVVLTCQVEHDGQQAVSKSYALEISAHQKEHGSDITHEAALAPTAPLLVALLLGPKLLLVVGVSAIYICWKQKA”, the “percentage of EdU-negative” value stood at 5.34 ± 0.15% in the data set on hTERT-HMEC (setting [1]), 5.42 ± 0.66% in the data set with hTERT-HMEC (protein concentration 0.225 µM), 24.1 ± 1.1% with MCF7 (setting [1]) and 27 ± 1.5% with MCF7 (protein concentration 0.225 µM).

As for “MPLSLGAEMWGPEAWLLLLLLLASFTGRCPAGELETSDVVTVVLGQDAKLPCFYRGDSGEQVGQVAWARVDAGEGAQELALLHSKYGLHVSPAYEGRVEQPPPPRNPLDGSVLLRNAVQADEGEYECRVSTFPAGSFQARLRLRVLVPPLPSLNPGPALEEGQGLTLAASCTAEGSPAPSVTWDTEVKGTTSSRSFKHSRSAAVTSEFHLVPSRSMNGQPLTCVVSHPGLLQDQRITHILHVSFLAEASVRGLEDQNLWHIGREGAMLKCLSEGQPPPSYNWTRLDGPLPSGVRVDGDTLGFPPLTTEHSGIYVCHVSNEFSSRDSQVTVDVLDPQEDSGKQVDLVSASVVVVGVIAALLFCLLVVVVVLMSRYHRRKAQQMTQKYEEELTLTRENSIRRLHSHHTDPRSQPEESVGLRAEGHPDSLKDNSSCSVMSEEPEGRSYSTLTTVREIETQTELLSPGSGRAEEEEDQDEGIKQAMNHFVQENGTLRAKPTGNGIYINGRGHLV [Q96NY8]”, the “percentage of EdU-negative” value in the data set on hTERT-HMEC (setting [1]) turned out to be 4.77 ± 0.36%; in the data set with hTERT-HMEC (protein concentration 0.225 µM), 5.65 ± 0.22%; in the data set on MCF7 (setting [1]), 27.6 ± 2%; with MCF7 (protein concentration 0.225 µM), 27.8 ± 0.29%.

For the origin of these results see the supplement of paper PMC11316812.
